{"source": "paper PMC8395514", "about": "“Characterization of Class V DyP-Type Peroxidase SaDyP1 from Streptomyces avermitilis and Evaluation of SaDyPs Expression in Mycelium” (International Journal of Molecular Sciences, 2021)", "molecules": {"B1": {"name": "SaDyP1 (Streptomyces avermitilis MA-4680 = NBRC 14893) (protein)", "chain": "MSIEKGNALEIDDIQAAALEPRPTPYAGAYLALRIDDRRQGRELLRRLTPALDSVAAFDPERQVSLAVALSFQGLKALGVPEESLATFPEEFREGMAARAEYIGDIGESAPENWEGPLGSKDVHLVLGGLAPDAARLETVLLLVRDALRDLPGVVAIWQQDVHVGPDEKEPFGFRDSIGQPAIEGTGIPGTNPYEEPLRAGEFITGYKDETHGITPVPQPEVLGRNGTYVAFRKLHTRVADFRQYLRDRAKDPADEELLAAKFVGRWPSGAPLALTPDKDDPELGADPARNNAFMYGDDPEGLKCPVGSHARRMNPRDAVVTGEVRLHRMIRRGTTYGPPLPKGVLEDDGADRGIMFAFVGAHLDRQFEFVQRQWVNDGKFIGSPAERDPLIGVNDDGGFTVPRQPIRRRFKGLPPFVVNRGGEYCFMPGLSALRWIADLDT"}}, "key": {"SaDyP1": {"target": "T1, SaDyP1 (Streptomyces avermitilis, UniProt Q82QF8)", "T1 construct": "gene SAVERM_549", "T1 sequence (Q82QF8 1-442)": "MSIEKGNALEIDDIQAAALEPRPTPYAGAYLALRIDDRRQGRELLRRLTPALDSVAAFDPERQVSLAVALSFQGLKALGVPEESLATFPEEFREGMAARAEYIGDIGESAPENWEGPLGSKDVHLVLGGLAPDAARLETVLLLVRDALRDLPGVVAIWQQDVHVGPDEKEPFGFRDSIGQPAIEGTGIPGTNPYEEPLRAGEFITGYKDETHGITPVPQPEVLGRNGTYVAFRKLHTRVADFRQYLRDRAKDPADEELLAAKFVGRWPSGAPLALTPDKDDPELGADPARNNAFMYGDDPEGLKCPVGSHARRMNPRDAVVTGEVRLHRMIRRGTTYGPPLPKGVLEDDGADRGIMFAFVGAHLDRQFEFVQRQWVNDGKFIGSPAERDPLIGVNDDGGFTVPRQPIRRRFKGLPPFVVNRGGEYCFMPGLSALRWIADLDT", "assay": "initial-rate peroxidase assay, absorbance […] nm, Haldane fit", "format": "biochemical", "details": "0.20 mM H2O2, 25 mM citrate, pH 4.0 in Table 3 and methods (pH 4.5 in Figure 5 legend), substrate inhibition model; substrate inhibition constant (Haldane)"}, "purified protein [1]": {"substrate": "CCn1c(=NN=c2sc3cc(S(=O)(=O)O)ccc3n2CC)sc2cc(S(=O)(=O)O)ccc21", "assay": "purified protein", "format": "biochemical, Streptomyces avermitilis", "details": "0.20 mM H2O2, 25 mM citrate, pH 4.0 in Table 3 and methods (pH 4.5 in Figure 5 legend), substrate inhibition model"}, "purified protein [2]": {"substrate": "COc1cccc(OC)c1O", "assay": "purified protein", "format": "biochemical, Streptomyces avermitilis", "details": "0.20 mM H2O2, 25 mM citrate, pH 4.0"}}}
{"molecule": "CCn1c(=NN=c2sc3cc(S(=O)(=O)O)ccc3n2CC)sc2cc(S(=O)(=O)O)ccc21", "note": "[ABTS, 2,2′-azinobis [3-ethylbenzothiazoline-6-sulfonic acid]]", "values": [{"measurement": "Ki", "setting": "SaDyP1", "result": 13, "unit": "mM"}]}
{"molecule": "B1", "values": [{"measurement": "Km", "setting": "purified protein [1]", "result": 1200, "unit": "µM"}, {"measurement": "kcat", "setting": "purified protein [1]", "result": 2.8, "unit": "s⁻¹"}, {"measurement": "kcat/Km", "setting": "purified protein [1]", "result": 2400, "unit": "M⁻¹ s⁻¹"}, {"measurement": "Km", "setting": "purified protein [2]", "result": 610, "unit": "µM"}, {"measurement": "kcat", "setting": "purified protein [2]", "result": 0.23, "unit": "s⁻¹"}, {"measurement": "kcat/Km", "setting": "purified protein [2]", "result": 380, "unit": "M⁻¹ s⁻¹"}]}
